This is an account of results in patent publication US10590193 (dated 2020).

Assay [1] has as its target T1, human VEGF165 (human, UniProt P15692).
T1 chain: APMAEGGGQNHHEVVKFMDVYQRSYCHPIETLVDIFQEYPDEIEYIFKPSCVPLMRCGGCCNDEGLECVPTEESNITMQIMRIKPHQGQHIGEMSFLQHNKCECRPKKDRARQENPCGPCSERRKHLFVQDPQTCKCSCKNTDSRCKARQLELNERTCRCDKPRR
Description: SPR, pH 7.4. In general terms: Surface plasmon resonance follows binding to a sensor surface in real time, without labels.

In assay [2] the target is T1, human VEGF165. Description: SPR, pH 5.
The next assay concerns the target T2, human VEGF110 (human, UniProt P15692).
T2 chain: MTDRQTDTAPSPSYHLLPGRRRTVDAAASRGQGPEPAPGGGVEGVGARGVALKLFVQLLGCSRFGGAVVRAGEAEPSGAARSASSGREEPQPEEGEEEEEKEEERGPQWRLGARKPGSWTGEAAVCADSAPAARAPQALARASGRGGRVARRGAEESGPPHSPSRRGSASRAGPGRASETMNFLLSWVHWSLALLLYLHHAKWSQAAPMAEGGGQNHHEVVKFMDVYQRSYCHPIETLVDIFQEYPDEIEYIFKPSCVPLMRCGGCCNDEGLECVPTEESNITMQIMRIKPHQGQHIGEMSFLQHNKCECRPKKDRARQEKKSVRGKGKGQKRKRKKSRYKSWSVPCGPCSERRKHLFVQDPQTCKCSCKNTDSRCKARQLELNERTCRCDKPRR
As to the kind of experiment: SPR, pH 5.

In assay [3] the target is T1, human VEGF165. As to the kind of experiment: SPR, pH 7.4.
The target in a further assay is T3, human VEGF121 (human, UniProt P15692).
T3 chain: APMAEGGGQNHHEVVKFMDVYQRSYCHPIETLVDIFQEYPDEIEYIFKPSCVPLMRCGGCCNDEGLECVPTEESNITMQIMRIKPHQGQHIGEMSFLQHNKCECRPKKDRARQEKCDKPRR
As to the kind of experiment: SPR, pH 5.

Assay [4] concerns the target T1, human VEGF165. Description: competition, VEGFR2 ELISA. A general note: An ELISA detects its analyte on a solid surface through an enzyme-linked reagent.
Another assay deals with T4, human PlGF (human, UniProt P49763).
T4 chain: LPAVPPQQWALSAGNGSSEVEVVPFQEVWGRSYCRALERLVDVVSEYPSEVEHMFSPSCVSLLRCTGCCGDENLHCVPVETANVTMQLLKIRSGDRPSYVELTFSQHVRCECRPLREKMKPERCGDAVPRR
As to the kind of experiment: SPR, pH 5.

A further assay addresses T5, rat VEGF164 (rat, UniProt P16612).
T5 chain: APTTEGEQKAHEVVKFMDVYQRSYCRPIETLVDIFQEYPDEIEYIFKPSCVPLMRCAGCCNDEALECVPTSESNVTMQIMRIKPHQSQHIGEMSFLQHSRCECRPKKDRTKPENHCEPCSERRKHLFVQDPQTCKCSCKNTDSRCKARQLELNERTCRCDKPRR
Description: SPR, pH 5.

In the next assay the target is T6, mouse VEGF164 (mouse, UniProt Q00731).
T6 chain: T5 chain with A10S, V14I, V75I
As to the kind of experiment: SPR, pH 5.

Positions count from the first letter of the chain named.

As a reminder, the Kd is the concentration at which binding is half-saturated. A low value points to tighter binding. As usually defined, the EC50 is the concentration that produces a half-maximal response.

B1: 610-min (antibody, V domains shown)
VH: EVQLVESGGGLVQPGGSLRLSCAASGIDFSGAYYMGWVRQAPGKGLEWVSYIDYDGDRYYASWAKGRFTISRDNSKNTLYLQMNSLRAEDTAVYYCAKSDYSSGWGTDIWGQGTLVTVSS
VL: EIVMTQSPSTLSASVGDRVIITCQASQSISSWLSWYQQKPGKAPKLLIYQASTLASGVPSRFSGSGSGAEFTLTISSLQPDDFATYYCQNNYGFRSYGGAFGQGTKLTVLG
Consider B1, for which, in the assay with human VEGF165 [1], the binding result was “no binding”. The same molecule showed a Kd with human VEGF165 [2] of 10.6 nM.

B2: 511-max (antibody, V domains shown)
VH: EVQLVESGGGLVQPGGSLRLSCTVSGFSLNTYYMNWVRQAPGKGLEWVGIIAPDDTTYYASWAKSRSTISRDTSKNTVYLQMNSLRAEDTAVYYCARSGDTTAWGADIWGQGTLVTVSS
VL: EIVMTQSPSTLSASVGDRVIITCQASQSINIWLSWYQQKPGKAPKLLIYRASTLASGVPSRFSGSGSGTEFTLTISSLQPDDFATYYCQANYAYSAGYGAAFGQGTKLTVLG
Regarding B2, the Kd came to 0.0667 nM in the assay with human VEGF165 [2]; 0.197 nM with human VEGF110; 0.0856 nM with human VEGF165 [3]; 0.214 nM in the assay with human VEGF121; 0.106 nM in the assay with rat VEGF164; 0.0613 nM with mouse VEGF164. The molecule also yielded an EC50 with human VEGF165 [4] of 0.822 nM. Further, the binding result in the assay with human PlGF was “no binding”.
